Values joined by “and” are separate entries in the source; they are usually repeats but may differ in a detail not shown here. Equal entries are not always repeated. “Also recorded” adds a separate entry of the source.
Assays:
ARF6 [1] = experiment: VEGF induced ARF6-GTP, HMVEC, SecinH3; type: cell-based, human
[2] = tested on: neovascular tuft formation; experiment: Laser-induced choroidal neovascularization, SecinH3; type: in vivo; details: wild-type mice, intravitreal injection, final concentration 21.6 μM, versus DMSO
[3] = tested on: neovascular tuft formation; experiment: Oxygen-induced retinopathy, SecinH3; type: in vivo; details: wild-type mice, intraocular injection, final concentration 21.6 μM, versus DMSO
HMVEC = experiment: VEGF induced migration of HMVECs (modified Boyden chamber); type: cell-based, human
[4] = tested on: endothelial cell migration; experiment: VEGF-induced endothelial cell migration by Slit constructs (FIG. 23); type: cell-based; details: Slit constructs 2 nM, compared with full length Slit2; listed as Slit2-D1
lung endothelial cells [5] = experiment: In vitro permeability assay (Transwell, HRP); type: cell-based, mice; details: Robo4^+/+ endothelial cell monolayers, pre-treatment with Slit2
[6] = tested on: human microvascular endothelial cells; experiment: Haptotaxis migration assay, human microvascular endothelial cells; type: cell-based; details: transwells coated with fibronectin and Slit2
[7] = tested on: pathological angiogenesis; experiment: Oxygen-induced retinopathy (OIR), Slit2N; type: in vivo; details: Robo4^+/+ mice, intravitreal administration
dermal permeability = experiment: Miles assay / VEGF-induced dermal permeability; type: in vivo; details: Robo4^+/+ mice, concomitant intradermal Slit2
[8] = tested on: murine lung endothelial cells; experiment: bFGF-induced tube formation on matrigel; type: cell-based
Cdc42 = experiment: Cdc42-GTP levels, endothelial cells on fibronectin; type: cell-based; details: presence of Slit2
ARF6 [9] = experiment: ARF6 activation assay (GST-GGA3), endothelial cells on VEGF-165; type: cell-based; details: endothelial cells on dishes coated with VEGF-165 and Slit2
lung endothelial cells [10] = experiment: VEGF-A endothelial cell migration assay, murine lung endothelial cells; type: cell-based, mice
Rac [11] = experiment: VEGF-induced Rac activation in HUVEC; type: cell-based, human; details: GST-PBD pull down
Rac [12] = experiment: Rac-GTP levels, endothelial cells on fibronectin; type: cell-based; details: endothelial cells on fibronectin and Slit2
Rac1 = experiment: VEGF-A-dependent Rac1 activation, HMVEC; type: cell-based, human; details: endothelial cell monolayers (HMVEC)
ARF6 [13] = experiment: ARF6 activation assay (GST-GGA3), endothelial cells on fibronectin; type: cell-based; details: endothelial cells on fibronectin and Slit2
endothelial cells = experiment: Spreading assay, endothelial cells; type: cell-based, human
lung endothelial cells [14] = experiment: VEGF-A tube formation assay, murine lung endothelial cells; type: cell-based, mice
LPS = experiment: Acute lung injury, intratracheal LPS, bronchoalveolar lavage; type: in vivo, mice; details: versus Mock preparation
retinal endothelium = experiment: VEGF induced retinal permeability (Evans Blue), Slit2; type: in vivo, mice; details: intravitreal co-injection
[15] = tested on: neovascularization of the retina; experiment: Retinopathy of prematurity: percent neovascularization of the retina (FIG. 12); type: in vivo; details: wildtype mice, Slit versus Mock preparation, N=6, P<0.003
VEGFR2 = experiment: VEGF-A-induced VEGFR2 phosphorylation, HMVEC; type: cell-based, human; details: 5 minutes
[16] = tested on: Avian Flu Virus, strain H5N1/Duck/Mn/1525/81; set-up: species or system BALB/c mice; details: mouse, in vivo
Rho = experiment: Rho-GTP levels, endothelial cells on fibronectin; type: cell-based; details: presence of Slit2
c-Src = experiment: VEGF-A-stimulated c-Src phosphorylation, HMVEC; type: cell-based, human; details: endothelial cells (HMVEC)
[17] = tested on: choroidal neovascularization; experiment: Laser-induced choroidal neovascularization (CNV), Slit2N; type: in vivo; details: Robo4^+/+ mice, intravitreal administration
[18] = endothelial cells pre-treated with inhibitor or vehicle (Example 28)

## COc1nc(-c2ccc3c(c2)OCO3)n(-c2ccc(NC(=O)CSc3ccccc3)cc2)n1 [SecinH3]
ARF6 [1]; HMVEC, 20 ng/ml VEGF, 50 μM Secin-H3
  accumulation of ARF6-GTP: blocks; also recorded: inhibits
ARF6 [1]; [18]
  VEGF-induced Arf6 activation: prevented
[2]
  neovascular tuft formation in CNV: inhibited
[3]
  neovascular tuft formation in OIR: inhibited
HMVEC; HMVEC, 15 ng/ml VEGF-165, 15 μM Secin-H3, 3 h
  VEGF-165 induced cell migration response: attenuated; also recorded: inhibits
HMVEC; [18]
  VEGF-induced cell migration: prevented

B1: SlitD1 (protein)
chain: ILNKVAPQACPAQCSCSGSTVDCHGLALRSVPRNIPRNTERLDLNGNNITRITKTDFAGLRHLRVLQLMENKISTIERGAFQDLKELERLRLNRNHLQLFPELLFLGTAKLYRLDLSENQIQAIPRKAFRGAVDIKNLQLDYNQISCIEDGAFRALRDLEVLTLNNNNITRLSVASFNHMPKLRTFRLHSNNLYCDCHLAWLSDWLRQRPRVGLYTQCMGPSHLRGHNVAEVQKREFVCSGHQS
[4]
  Inhibition of VEGF mediated endothelial cell migration: active

B2: Slit2N (protein)
chain: QACPAQCSCSGSTVDCHGLALRSVPRNIPRNTERLDLNGNNITRITKTDFAGLRHLRVLQLMENKISTIERGAFQDLKELERLRLNRNHLQLFPELLFLGTAKLYRLDLSENQIQAIPRKAFRGAVDIKNLQLDYNQISCIEDGAFRALRDLEVLTLNNNNITRLSVASFNHMPKLRTFRLHSNNLYCDCHLAWLSDWLRQRPRVGLYTQCMGPSHLRGHNVAEVQKREFVCSGHQSFMAPSCSVLHCPAACTCSNNIVDCRGKGLTEIPTNLPETITEIRLEQNTIKVIPPGAFSPYKKLRRIDLSNNQISELAPDAFQGLRSLNSLVLYGNKITELPKSLFEGLFSLQLLLLNANKINCLRVDAFQDLHNLNLLSLYDNKLQTIAKGTFSPLRAIQTMHLAQNPFICDCHLKWLADYLHTNPIETSGARCTSPRRLANKRIGQIKSKKFRCSAKEQYFIPGTEDYRSKLSGDCFADLACPEKCRCEGTTVDCSNQKLNKIPEHIPQYTAELRLNNNEFTVLEATGIFKKLPQLRKINFSNNKITDIEEGAFEGASGVNEILLTSNRLENVQHKMFKGLESLKTLMLRSNRITCVGNDSFIGLSSVRLLSLYDNQITTVAPGAFDTLHSLSTLNLLANPFNCNCYLAWLGEWLRKKRIVTGNPRCQKPYFLKEIPIQDVAIQDFTCDDGNDDNSCSPLSRCPTECTCLDTVVRCSNKGLKVLPKGIPRDVTELYLDGNQFTLVPKELSNYKHLTLIDLSNNRISTLSNQSFSNMTQLLTLILSYNRLRCIPPRTFDGLKSLRLLSLHGNDISVVPEGAFNDLSALSHLAIGANPLYCDCNMQWLSDWVKSEYKEPGIARCAGPGEMADKLLLTTPSKKFTCQGPVDVNILAKCNPCLSNPCKNDGTCNSDPVDFYRCTCPYGFKGQDCDVPIHACISNPCKHGGTCHLKEGEEDGFWCICADGFEGENCEVNVDDCEDNDCENNSTCVDGINNYTCLCPPEYTGELCEEKLDFCAQDLNPCQHDSKCILTPKGFKCDCTPGYVGEHCDIDFDDCQDNKCKNGAHCTDAVNGYTCICPEGYSGLFCEFSPP
Lung endothelial cells [5]
  VEGF-A-enhanced accumulation of HRP in the lower chamber: prevented
[6]
  fibronectin-driven cell migration (haptotaxis): blocked
[7]
  angiogenesis in oxygen-induced retinopathy: markedly reduced
Dermal permeability
  VEGF-A-stimulated leak of Evans Blue into the dermis: prevented
[8]
  bFGF-induced endothelial tube formation: blocked
Cdc42
  Cdc42 activation: significantly reduced
ARF6 [9]
  VEGF-165-induced ARF6 activation: prevented
Lung endothelial cells [10]; Robo4^+/+ endothelial cells
  VEGF-A-dependent endothelial cell migration: inhibited
Lung endothelial cells [10]; Robo4^AP/AP endothelial cells
  VEGF-A-dependent endothelial cell migration, inhibitory activity: lost
Rac [11]
  VEGF-stimulated Rac activation: completely suppressed
Rac [12]
  fibronectin-induced increase in Rac-GTP: efficiently blocked
Rac1
  VEGF-A-dependent Rac1 activation: prevented
ARF6 [13]
  fibronectin-induced increase in ARF6-GTP: efficiently blocked
Endothelial cells
  cell spreading on fibronectin: markedly inhibited
Endothelial cells; endothelial cells on 9-11 fragment of fibronectin and Slit2
  cellular protrusive activity stimulated by integrin ligation (spreading): suppressed
Lung endothelial cells [14]; Robo4^+/+ endothelial cells
  VEGF-A-dependent tube formation: inhibited
Lung endothelial cells [14]; Robo4^AP/AP endothelial cells
  VEGF-A-dependent tube formation, inhibitory activity: lost
LPS
  concentration of inflammatory cells in bronchoalveolar lavages (BAL): significantly lower
  concentration of protein in bronchoalveolar lavages (BAL): significantly lower
LPS; listed as Slit protein
  concentration of inflammatory cells in bronchoalveolar lavages (BAL): significantly reduced
  concentration of protein in bronchoalveolar lavages (BAL): significantly reduced
Retinal endothelium; Robo4^+/+ mice
  VEGF-A induced leak of Evans Blue from the retinal blood vessels: suppressed
Retinal endothelium; Robo4^AP/AP mice
  VEGF-A induced leak of Evans Blue from the retinal blood vessels: refractory
[15]
  reduction in neovascularization: 63%
VEGFR2
  VEGF-A-induced VEGFR2 phosphorylation: no effect
[16]
  mortality: lower mortality
  survivability rate: 25% and 50%
[16]; iv
  Av. Wt.: 17.4 grams and 18.5 grams and 16.0 grams and 15.4 grams
Rho
  Rho activation: unaltered
c-Src
  VEGF-A-stimulated phosphorylation of c-Src: reduced
[17]
  angiogenesis in laser-induced choroidal neovascularization: reduced

Reference: US20100222401A1, “COMPOSITIONS AND METHODS FOR TREATING PATHOLOGIC ANGIOGENESIS AND VASCULAR PERMEABILITY” (priority 2008, published 2010)
